Measurements published in patent publication US20030220285A1.

Molecular target: purified HLA-A2.1 molecules (human)

Substance	IC50 [nM]
HBV Pol 551-A (native HBV pol 551-559) peptide […] (peptide; other documents disagree on this pair)	200
HBV Core 18 (HBV core 18-27) peptide […] (peptide; other documents disagree on this pair)	3
